From the Human Domainome abundance scans (Beltran et al. 2025)
± gives the uncertainty stated by the source.

B1: Zinc finger homeobox protein 3, residues 2147 to 2202; numbered along this chain, Q15911 (parent)
chain: RPRTRITDDQLRVLRQYFDINNSPSEEQIKEMADKSGLPQKVIKHWFRNTLFKERQ

Variants of: B1
Test: abundance fitness (aPCA) (normalised: wild type 0, dead -1); higher = more abundant; growth selection in yeast, the domain comes from the species named
Details: Homo sapiens
RPRTRITDDCLRVLRQYFDINNSPSEEQIKEMADKSGLPQKVIKHWFRNTLFKERQ [Q10C] showed an abundance fitness of -0.381 ± 0.098. With RPRTRITDDKLRVLRQYFDINNSPSEEQIKEMADKSGLPQKVIKHWFRNTLFKERQ [Q10K] the abundance fitness was -0.359 ± 0.093. RPRTRITDDFLRVLRQYFDINNSPSEEQIKEMADKSGLPQKVIKHWFRNTLFKERQ [Q10F] gave an abundance fitness of -0.626 ± 0.14. In the case of RPRTRITDDLLRVLRQYFDINNSPSEEQIKEMADKSGLPQKVIKHWFRNTLFKERQ [Q10L], the abundance fitness is reported as -0.453 ± 0.072. RPRTRITDDELRVLRQYFDINNSPSEEQIKEMADKSGLPQKVIKHWFRNTLFKERQ [Q10E] gave an abundance fitness of -0.394 ± 0.08. Variant RPRTRITDDPLRVLRQYFDINNSPSEEQIKEMADKSGLPQKVIKHWFRNTLFKERQ [Q10P] has an abundance fitness of -0.741 ± 0.094. For RPRTRITDDHLRVLRQYFDINNSPSEEQIKEMADKSGLPQKVIKHWFRNTLFKERQ [Q10H], the abundance fitness was 0.025 ± 0.13. For RPRTRITDDILRVLRQYFDINNSPSEEQIKEMADKSGLPQKVIKHWFRNTLFKERQ [Q10I], the abundance fitness was -0.464 ± 0.14. In the case of RPRTRITDDMLRVLRQYFDINNSPSEEQIKEMADKSGLPQKVIKHWFRNTLFKERQ [Q10M], the abundance fitness is reported as -0.27 ± 0.1. For RPRTRITDDTLRVLRQYFDINNSPSEEQIKEMADKSGLPQKVIKHWFRNTLFKERQ [Q10T], the abundance fitness was -0.357 ± 0.1. RPRTRITDDALRVLRQYFDINNSPSEEQIKEMADKSGLPQKVIKHWFRNTLFKERQ [Q10A] gave an abundance fitness of -0.263 ± 0.07. Work on RPRTRITDDNLRVLRQYFDINNSPSEEQIKEMADKSGLPQKVIKHWFRNTLFKERQ [Q10N] yielded an abundance fitness of -0.477 ± 0.13. Work on RPRTRITDDYLRVLRQYFDINNSPSEEQIKEMADKSGLPQKVIKHWFRNTLFKERQ [Q10Y] yielded an abundance fitness of -0.626 ± 0.11. For RPRTRITDDGLRVLRQYFDINNSPSEEQIKEMADKSGLPQKVIKHWFRNTLFKERQ [Q10G], the abundance fitness was -0.602 ± 0.065. Work on RPRTRITDDWLRVLRQYFDINNSPSEEQIKEMADKSGLPQKVIKHWFRNTLFKERQ [Q10W] yielded an abundance fitness of -0.718 ± 0.088. With RPRTRITDDRLRVLRQYFDINNSPSEEQIKEMADKSGLPQKVIKHWFRNTLFKERQ [Q10R] the abundance fitness was -0.605 ± 0.066. For RPRTRITDDDLRVLRQYFDINNSPSEEQIKEMADKSGLPQKVIKHWFRNTLFKERQ [Q10D], the abundance fitness was -0.308 ± 0.1. With RPRTRITLDQLRVLRQYFDINNSPSEEQIKEMADKSGLPQKVIKHWFRNTLFKERQ [D8L] the abundance fitness was -0.028 ± 0.067. RPRTRITPDQLRVLRQYFDINNSPSEEQIKEMADKSGLPQKVIKHWFRNTLFKERQ [D8P] showed an abundance fitness of 0.149 ± 0.095. RPRTRITIDQLRVLRQYFDINNSPSEEQIKEMADKSGLPQKVIKHWFRNTLFKERQ [D8I] showed an abundance fitness of -0.122 ± 0.12. In the case of RPRTRITCDQLRVLRQYFDINNSPSEEQIKEMADKSGLPQKVIKHWFRNTLFKERQ [D8C], the abundance fitness is reported as 0.054 ± 0.098. RPRTRITNDQLRVLRQYFDINNSPSEEQIKEMADKSGLPQKVIKHWFRNTLFKERQ [D8N] showed an abundance fitness of -0.211 ± 0.11. With RPRTRITRDQLRVLRQYFDINNSPSEEQIKEMADKSGLPQKVIKHWFRNTLFKERQ [D8R] the abundance fitness was -0.226 ± 0.064. Variant RPRTRITVDQLRVLRQYFDINNSPSEEQIKEMADKSGLPQKVIKHWFRNTLFKERQ [D8V] has an abundance fitness of -0.05 ± 0.065. Variant RPRTRITMDQLRVLRQYFDINNSPSEEQIKEMADKSGLPQKVIKHWFRNTLFKERQ [D8M] has an abundance fitness of -0.096 ± 0.086. Variant RPRTRITEDQLRVLRQYFDINNSPSEEQIKEMADKSGLPQKVIKHWFRNTLFKERQ [D8E] has an abundance fitness of -0.012 ± 0.076. RPRTRITWDQLRVLRQYFDINNSPSEEQIKEMADKSGLPQKVIKHWFRNTLFKERQ [D8W] gave an abundance fitness of -0.277 ± 0.079. With RPRTRITQDQLRVLRQYFDINNSPSEEQIKEMADKSGLPQKVIKHWFRNTLFKERQ [D8Q] the abundance fitness was 0.061 ± 0.092. RPRTRITADQLRVLRQYFDINNSPSEEQIKEMADKSGLPQKVIKHWFRNTLFKERQ [D8A] gave an abundance fitness of -0.022 ± 0.067. Work on RPRTRITYDQLRVLRQYFDINNSPSEEQIKEMADKSGLPQKVIKHWFRNTLFKERQ [D8Y] yielded an abundance fitness of -0.215 ± 0.098. Variant RPRTRITGDQLRVLRQYFDINNSPSEEQIKEMADKSGLPQKVIKHWFRNTLFKERQ [D8G] has an abundance fitness of -0.063 ± 0.062. Work on RPRTRITSDQLRVLRQYFDINNSPSEEQIKEMADKSGLPQKVIKHWFRNTLFKERQ [D8S] yielded an abundance fitness of 0.02 ± 0.075. With RPRTRITFDQLRVLRQYFDINNSPSEEQIKEMADKSGLPQKVIKHWFRNTLFKERQ [D8F] the abundance fitness was -0.204 ± 0.1. For RPRTRITHDQLRVLRQYFDINNSPSEEQIKEMADKSGLPQKVIKHWFRNTLFKERQ [D8H], the abundance fitness was 0.026 ± 0.13. In the case of RPRTRITTDQLRVLRQYFDINNSPSEEQIKEMADKSGLPQKVIKHWFRNTLFKERQ [D8T], the abundance fitness is reported as -0.001 ± 0.081. Variant RPRTRITDDQKRVLRQYFDINNSPSEEQIKEMADKSGLPQKVIKHWFRNTLFKERQ [L11K] has an abundance fitness of 0.095 ± 0.099. RPRTRITDDQDRVLRQYFDINNSPSEEQIKEMADKSGLPQKVIKHWFRNTLFKERQ [L11D] gave an abundance fitness of -0.182 ± 0.14. With RPRTRITDDQIRVLRQYFDINNSPSEEQIKEMADKSGLPQKVIKHWFRNTLFKERQ [L11I] the abundance fitness was -0.126 ± 0.13. RPRTRITDDQYRVLRQYFDINNSPSEEQIKEMADKSGLPQKVIKHWFRNTLFKERQ [L11Y] showed an abundance fitness of -0.297 ± 0.12. Work on RPRTRITDDQCRVLRQYFDINNSPSEEQIKEMADKSGLPQKVIKHWFRNTLFKERQ [L11C] yielded an abundance fitness of -1.12 ± 0.11. RPRTRITDDQVRVLRQYFDINNSPSEEQIKEMADKSGLPQKVIKHWFRNTLFKERQ [L11V] gave an abundance fitness of -0.252 ± 0.071. In the case of RPRTRITDDQSRVLRQYFDINNSPSEEQIKEMADKSGLPQKVIKHWFRNTLFKERQ [L11S], the abundance fitness is reported as -0.161 ± 0.073. With RPRTRITDDQGRVLRQYFDINNSPSEEQIKEMADKSGLPQKVIKHWFRNTLFKERQ [L11G] the abundance fitness was -0.088 ± 0.063. RPRTRITDDQFRVLRQYFDINNSPSEEQIKEMADKSGLPQKVIKHWFRNTLFKERQ [L11F] showed an abundance fitness of -0.216 ± 0.1. RPRTRITDDQNRVLRQYFDINNSPSEEQIKEMADKSGLPQKVIKHWFRNTLFKERQ [L11N] gave an abundance fitness of -0.019 ± 0.15. For RPRTRITDDQTRVLRQYFDINNSPSEEQIKEMADKSGLPQKVIKHWFRNTLFKERQ [L11T], the abundance fitness was -0.026 ± 0.095. In the case of RPRTRITDDQHRVLRQYFDINNSPSEEQIKEMADKSGLPQKVIKHWFRNTLFKERQ [L11H], the abundance fitness is reported as -0.399 ± 0.13.
